This passage reports Km and kcat results from publication PMC11425952, “Characterization of Mycobacterium smegmatis Glutaminase-Free Asparaginase (MSMEG_3173)” (ACS Omega, 2024).

The subject of this data set is NC(=O)C[C@H](N)C(=O)O. The experiment in a line: purified protein. The format is biochemical, Mycolicibacterium smegmatis. The conditions noted are these: 50 mM Tris-HCl pH 8.6, 37 °C (standard assay), 0.05-4.0 mM L-Asn.

Take “MsA (Mycobacterium smegmatis L-asparaginase, MSMEG_3173) (Mycolicibacterium smegmatis MC2 155)”: the Km was found to be 1403 ± 240 µM and the kcat amounted to 708.1 ± 25.05 s⁻¹.
